Measurements reported in patent US20030175703, “RNA aptamers and methods for identifying the same” (published 2003).
Changes are numbered by the printed parent chain.

B1: D4-7 (ssRNA)
RNA: GGGAGAGAGGAAGAGGGAUGGGAUAAUAGCCCCAGCGAGAUAAUACUUGGCCCCGCUACUAACAUAACCCAGAGGUCGAU
B2: F11-8 (ssRNA)
RNA: B1 RNA with U24G, A26U, A62C
B3: D7-9 (ssRNA)
RNA: B1 RNA with A23U, U24A, A42U, A43C, A62C
B4: F11-7 (ssRNA)
RNA: B1 RNA with U24A, C59U, A62C
B5: D7-6 (ssRNA)
RNA: B1 RNA with U24A, C59G, U60C, A62C
B6: D6-2 (ssRNA)
RNA: B1 RNA with U24A, U60A, A62C
B7: D7-1 (ssRNA)
RNA: B1 RNA with U24G, A28G, A42U, U57C, C59A, A62C
B8: D8-1 (ssRNA)
RNA: B1 RNA with U24A, A42G, C59A, A62C
B9: D7-7 (ssRNA)
RNA: GGGAGAGAGGAAGAGGGAUGGGAGAAUACGCCUAGCGAGAAGAUACUUGGCCCCCGUGCAACCAUAACCCAGAGGUCGAU
B10: D6-3 (ssRNA)
RNA: B1 RNA with U24A, A58G, C59U, A62C
B11: D6-9 (ssRNA)
RNA: B1 RNA with U24A, A26U, A28U, U57A, A62C
B12: D7-2 (ssRNA)
RNA: B1 RNA with U24G, C59A, A62C
B13: D6-4 (ssRNA)
RNA: GGGAGAGAGGAAGAGGGAUGGGAAAUUUGCCCUAGCGAGAUUAUACUUGGCCCCGCGAAAAACCAUAACCCAGAGGUCGAU
B14: E10-12 (ssRNA)
RNA: B1 RNA with U24A, U57G, C59A, U60C, A62C
B15: D6-7 (ssRNA)
RNA: B1 RNA with A23U, U24G, A25C, U60A, A62C
B16: D6-10 (ssRNA)
RNA: B1 RNA with A23C, U24A, A25G, C32A, A42C, A62C
B17: D4-5 (ssRNA)
RNA: B1 RNA with U24G, A45C, A61G, A62C
B18: D7-5 (ssRNA)
RNA: B1 RNA with U24A, A26C, C32U, A62C
B19: E10-11 (ssRNA)
RNA: GGGAGAGAGGAAGAGGGAUGGGCCAGAAGCGCUCACUACAACGUUGAACCCCCCGUCCACACCAUAACCCAGAGGUCGAU
B20: E10-8 (ssRNA)
RNA: GGGAGAGAGGAAGAGGGAUGGGCCAAAAGCGGACUGAAGACGUGUUUCCCCCAUCUCCGUGACAUAACCCAGAGGUCGAU
B21: E9-8 (ssRNA)
RNA: GGGAGAGAGGAAGAGGGAUGGGCCAGAAGGAACUAAACACCUGAACCCCCCAUCGCGAGAGACAUAACCCAGAGGUCGAU
B22: F11-6 (ssRNA)
RNA: GGGAGAGAGGAAGAGGGAUGGGCCAGCAACGUCACACGAACGGAAUACCCCCCAUUGAAAACCAUAACCCAGAGGUCGAU
B23: E10-4 (ssRNA)
RNA: GGGAGAGAGGAAGAGGGAUGGGUCUUAGAUAUAGAACUCCGAGAGGACUGACCGUACAGAACCAUAACCCAGAGGUCGAU
B24: D7-4 (ssRNA)
RNA: B1 RNA with U24G, A42C, A43G, C59G, A62C
B25: E9-3 (ssRNA)
RNA: GGGAGAGAGGAAGAGGGAUGGGCCAAAAGCGCAUACACCUGCGUGUUUCCCCCGCCAACAGUCAUAACCCAGAGGUCGAU
B26: E9-9 (ssRNA)
RNA: GGGAGAGAGGAAGAGGGAUGGGCCAGAACACCAGUGAACCCCCCAGCCCCUUCUCACCAGAUCAUAACCCAGAGGUCGAU
B27: E9-5 (ssRNA)
RNA: GGGAGAGAGGAAGAGGGAUGGGCCAGAAGCGACACUAACGCUGAACCCCCCAGUCCCUUCACGUGCAUAACCCAGAGGUCGAU
B28: E9-2 (ssRNA)
RNA: GGGAGAGAGGAAGAGGGAUGGGAUACCGAGCACGCAAAACACACAAUGCCCAAGCAGGACUCAUAACCCAGAGGUCGAU
B29: E9-4 (ssRNA)
RNA: GGGAGAGAGGAAGAGGGAUGGGAGCCCGAGAAAAUAACGCGUUCCACCAUACUACUAAGCCAUAACCCAGAGGUCGAU
B30: D4-3 (ssRNA)
RNA: B1 RNA with A23U, U24A, U57A, A62C
B31: F11-10 (ssRNA)
RNA: GGGAGAGAGGAAGAGGGAUGGGCUCGGCAGAAGACACGCAUUCACCUGGUGCCACCUCGUAACAUAACCCAGAGGUCGAU
B32: E10-6 (ssRNA)
RNA: GGGAGAGAGGAAGAGGGAUGGGGCCGUCGCCAGGAAUCAAACUGCUACUCCAUCCCGGGCACAUAACCCAGAGGUCGAU
B33: E9-6 (ssRNA)
RNA: GGGAGAGAGGAAGAGGGAUGGGCCAGAAGCUAAACACUCAUAACCACGCUGAACCCCCCAACCAUAACCCAGAGGUCGAU
B34: E9-10 (ssRNA)
RNA: GGGAGAGAGGAAGAGGGAUGGGCCAGAACCAACUGCGGUGAACCCCCCAUACCGCGACACAUCAUAACCCAGAGGUCGAU
B35: D4-2 (ssRNA)
RNA: B1 RNA with U24A, A25C, A26U, C32U, U44C, A45G, C59A, U60G, A62C
B36: D4-9 (ssRNA)
RNA: B1 RNA with A23U, U24A, A26G, A28U, A43G
B37: Ang2 aptamer 11-3 (ssRNA)
RNA: GGGAGGACGAUGCGGUUAACCAUCAGCUCAUGGCCCCUGCCCUCUCAAGGACCACCAGACGACUCGCUGAGGAUCCGAGA
modifications: 2'-F
B38: 9.19 (ssRNA)
RNA: GGGAGAGAGGAAGAGGGAUGGGACCAUAACGACUACUCGUGAAUCCCACCAUCAGCGCACAACAUAACCCAGAGGUCGAUAGUACUGGAUCCCCCC
modifications: 2'-F pyrimidines
B39: 9.20 (ssRNA)
RNA: GGGAGAGAGGAAGAGGGAUGGGGACUAUACCGGCAAUCGUGCAUCCCCUGGACCUAACAAUACAUAACCCAGAGGUCGAUAGUACUGGAUCCCCCC
modifications: 2'-F pyrimidines
B40: 9.25 (ssRNA)
RNA: GGGAGAGAGGAAGAGGGAUGGGGACCAUAACUCUAACGGGUGAAUCCCGCAUCUCGACAAUACAUAACCCAGAGGUCGAUAGUACUGGAUCCCC
modifications: 2'-F pyrimidines
B41: 9.26 (ssRNA)
RNA: GGGAGAGAGGAAGAGGGAUGGGUGAUAACCACUCUGGUGAACCCCUCCCGACUUGCUCGCACAUAACCCAGAGGUCGAUAGUACUGGAUCCCCCC
modifications: 2'-F pyrimidines
B42: 9.27 (ssRNA)
RNA: GGGAGAGAGGAAGAGGGAUGGGUAAUAACUGUAUGGUGAACCCACCCAAACUCCCAUGGCUACAUAACCCAGAGGUCGAUAGUACUGGAUCCCCCC
modifications: 2'-F pyrimidines
B43: 9.28 (ssRNA)
RNA: GGGAGAGAGGAAGAGGGAUGGGCGCCAUACGCACAUUGCUGCAUCGCCUUCCCGUAAGAACCAUAACCCAGAGGUCGAUAGUACUGGAUCCCCCC
modifications: 2'-F pyrimidines

The binders below were run against thrombin (F2) (human, UniProt P00734;P00734 P00734:328-363,P00734:364-622) (assay: not given).

Compared with GGGAACAAAGCUGAAGUACUUACCC (ssRNA) [TOG 25 short (TOGGLE-25t)], GGGAACAAAGCUGAAGUACUUAGGG (ssRNA) [TOG 25 short no stem] is 1000-fold higher in Kd: ~1 nM for the first, ~1000 nM for the second.

Going from GGGAACAAAGCAGAAGUACUUACCC (ssRNA) [TOG 25 short loop U1] to GGGAACAAAGCUGAAGAACUUACCC (ssRNA) [TOG 25 short loop U2], the Kd falls from ~250 nM to ~1 nM (250-fold). The second binds more tightly here.

Each binder was assayed against coagulation factor Xa (FXa) (UniProt P00742;P00742 P00742:41-179,P00742:235-488) (assay: not given).
Sequence of coagulation factor Xa (FXa) (P00742 41-179, chain 1 of 2): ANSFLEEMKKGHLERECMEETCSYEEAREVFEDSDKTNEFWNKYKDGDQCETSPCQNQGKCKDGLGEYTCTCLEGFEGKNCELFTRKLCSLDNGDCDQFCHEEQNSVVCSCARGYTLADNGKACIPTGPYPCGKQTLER
Sequence of coagulation factor Xa (FXa) (P00742 235-488, chain 2 of 2): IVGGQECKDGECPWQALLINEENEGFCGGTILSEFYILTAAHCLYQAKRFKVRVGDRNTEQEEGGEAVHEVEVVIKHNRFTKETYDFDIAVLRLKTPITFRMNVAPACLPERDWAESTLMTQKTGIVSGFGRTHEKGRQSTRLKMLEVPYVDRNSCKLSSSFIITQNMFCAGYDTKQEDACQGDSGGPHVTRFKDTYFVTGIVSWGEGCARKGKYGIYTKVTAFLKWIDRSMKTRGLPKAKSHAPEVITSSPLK

B1: binds.

GAGAGCCCCAGCGAGAUAAUACUUGGCCCCGCUCUU (ssRNA) [11.F7t] and B2 are within 1.5-fold of each other in Kd: ~1.5 nM for the first, 2.2 nM for the second.

B3 and B4 are within 1.5-fold of each other in Kd: 2.63 nM for the first, 3.6 nM for the second.

B5 and B6 are within 1.5-fold of each other in Kd: 3.8 nM for the first, 4.6 nM for the second.

B7 and B8 are within 1.5-fold of each other in Kd: 4.7 nM for the first, 4.8 nM for the second.

B9 and B10 are within 1.5-fold of each other in Kd: 5.8 nM for the first, 5.9 nM for the second.

B11 and B12 are within 1.5-fold of each other in Kd: 6.5 nM for the first, 8.1 nM for the second.

B13 and B14 are within 1.5-fold of each other in Kd: 8.5 nM for the first, 11.7 nM for the second.

B15 and B16 are within 1.5-fold of each other in Kd: 13.2 nM for the first, 18.7 nM for the second.

B17 and B18 are within 1.5-fold of each other in Kd: 21.7 nM for the first, 26.1 nM for the second.

B19 and B20 are within 1.5-fold of each other in Kd: 27.1 nM for the first, 28.4 nM for the second.

B21 and B22 are within 1.5-fold of each other in Kd: 29.8 nM for the first, 33.6 nM for the second.

B23 and B24 are within 1.5-fold of each other in Kd: 37.4 nM for the first, 39.3 nM for the second.

B25 and B26 are within 1.5-fold of each other in Kd: 46.5 nM for the first, 52.8 nM for the second.

B27 and B28 are within 1.5-fold of each other in Kd: 53.5 nM for the first, 58.6 nM for the second.

B29 and B30 are within 1.5-fold of each other in Kd: 65 nM for the first, 65.5 nM for the second.

B31 and B32 are within 1.5-fold of each other in Kd: 84.4 nM for the first, 85.7 nM for the second.

B33 and B34 are within 1.5-fold of each other in Kd: 95.1 nM for the first, 130 nM for the second.

B35 and B36 cannot be ordered by Kd: 540 nM for the first, > 240 nM for the second.

These binders were tested against angiopoietin-2 (Ang2) (UniProt O15123 O15123:19-496) (assay: not given).
Sequence of angiopoietin-2 (Ang2) (O15123 19-496, one chain of several): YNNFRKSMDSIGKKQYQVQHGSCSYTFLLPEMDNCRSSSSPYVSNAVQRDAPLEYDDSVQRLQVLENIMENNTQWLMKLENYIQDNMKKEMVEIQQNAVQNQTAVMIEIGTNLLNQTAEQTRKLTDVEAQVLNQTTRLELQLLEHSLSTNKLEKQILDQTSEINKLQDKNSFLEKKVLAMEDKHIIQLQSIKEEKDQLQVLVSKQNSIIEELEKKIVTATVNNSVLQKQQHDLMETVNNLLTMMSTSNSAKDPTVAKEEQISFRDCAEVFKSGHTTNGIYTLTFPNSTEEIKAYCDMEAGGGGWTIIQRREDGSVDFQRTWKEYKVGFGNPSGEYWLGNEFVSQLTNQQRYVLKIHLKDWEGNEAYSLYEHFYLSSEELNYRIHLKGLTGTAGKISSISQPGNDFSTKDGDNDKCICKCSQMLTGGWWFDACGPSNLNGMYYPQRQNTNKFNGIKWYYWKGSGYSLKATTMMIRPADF

Binder B37 has a Kd of ~10 nM.

The binders below were run against coagulation factor IXa (FIXa) (UniProt P00740;P00740 P00740:47-191,P00740:227-461) (assay: filter; double-filter nitrocellulose).
Sequence of coagulation factor IXa (FIXa) (P00740 47-191, chain 1 of 2): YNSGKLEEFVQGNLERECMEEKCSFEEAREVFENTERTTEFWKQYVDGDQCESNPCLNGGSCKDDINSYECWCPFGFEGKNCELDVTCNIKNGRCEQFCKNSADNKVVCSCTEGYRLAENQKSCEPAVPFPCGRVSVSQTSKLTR
Sequence of coagulation factor IXa (FIXa) (P00740 227-461, chain 2 of 2): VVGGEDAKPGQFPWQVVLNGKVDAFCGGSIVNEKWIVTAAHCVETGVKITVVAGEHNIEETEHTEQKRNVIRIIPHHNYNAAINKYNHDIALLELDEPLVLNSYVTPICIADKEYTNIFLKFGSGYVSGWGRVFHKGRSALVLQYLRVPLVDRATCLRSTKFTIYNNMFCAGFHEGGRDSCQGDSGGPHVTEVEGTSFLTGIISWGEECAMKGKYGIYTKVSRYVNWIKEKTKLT

B38 and B39 are within 1.5-fold of each other in Kd: 0.707 nM for the first, 0.49 nM for the second.

B40 and B41 are the same in Kd: 0.49 nM for the first, 0.49 nM for the second.

First: B42
Second: B43
The Kd of the first is 2.8-fold higher: 1.64 nM for the first, 0.592 nM for the second.
